Laboratory results reported in patent US20220072157.

Target: C3b, P01024
Sequence (P01024 whole entry, looked up): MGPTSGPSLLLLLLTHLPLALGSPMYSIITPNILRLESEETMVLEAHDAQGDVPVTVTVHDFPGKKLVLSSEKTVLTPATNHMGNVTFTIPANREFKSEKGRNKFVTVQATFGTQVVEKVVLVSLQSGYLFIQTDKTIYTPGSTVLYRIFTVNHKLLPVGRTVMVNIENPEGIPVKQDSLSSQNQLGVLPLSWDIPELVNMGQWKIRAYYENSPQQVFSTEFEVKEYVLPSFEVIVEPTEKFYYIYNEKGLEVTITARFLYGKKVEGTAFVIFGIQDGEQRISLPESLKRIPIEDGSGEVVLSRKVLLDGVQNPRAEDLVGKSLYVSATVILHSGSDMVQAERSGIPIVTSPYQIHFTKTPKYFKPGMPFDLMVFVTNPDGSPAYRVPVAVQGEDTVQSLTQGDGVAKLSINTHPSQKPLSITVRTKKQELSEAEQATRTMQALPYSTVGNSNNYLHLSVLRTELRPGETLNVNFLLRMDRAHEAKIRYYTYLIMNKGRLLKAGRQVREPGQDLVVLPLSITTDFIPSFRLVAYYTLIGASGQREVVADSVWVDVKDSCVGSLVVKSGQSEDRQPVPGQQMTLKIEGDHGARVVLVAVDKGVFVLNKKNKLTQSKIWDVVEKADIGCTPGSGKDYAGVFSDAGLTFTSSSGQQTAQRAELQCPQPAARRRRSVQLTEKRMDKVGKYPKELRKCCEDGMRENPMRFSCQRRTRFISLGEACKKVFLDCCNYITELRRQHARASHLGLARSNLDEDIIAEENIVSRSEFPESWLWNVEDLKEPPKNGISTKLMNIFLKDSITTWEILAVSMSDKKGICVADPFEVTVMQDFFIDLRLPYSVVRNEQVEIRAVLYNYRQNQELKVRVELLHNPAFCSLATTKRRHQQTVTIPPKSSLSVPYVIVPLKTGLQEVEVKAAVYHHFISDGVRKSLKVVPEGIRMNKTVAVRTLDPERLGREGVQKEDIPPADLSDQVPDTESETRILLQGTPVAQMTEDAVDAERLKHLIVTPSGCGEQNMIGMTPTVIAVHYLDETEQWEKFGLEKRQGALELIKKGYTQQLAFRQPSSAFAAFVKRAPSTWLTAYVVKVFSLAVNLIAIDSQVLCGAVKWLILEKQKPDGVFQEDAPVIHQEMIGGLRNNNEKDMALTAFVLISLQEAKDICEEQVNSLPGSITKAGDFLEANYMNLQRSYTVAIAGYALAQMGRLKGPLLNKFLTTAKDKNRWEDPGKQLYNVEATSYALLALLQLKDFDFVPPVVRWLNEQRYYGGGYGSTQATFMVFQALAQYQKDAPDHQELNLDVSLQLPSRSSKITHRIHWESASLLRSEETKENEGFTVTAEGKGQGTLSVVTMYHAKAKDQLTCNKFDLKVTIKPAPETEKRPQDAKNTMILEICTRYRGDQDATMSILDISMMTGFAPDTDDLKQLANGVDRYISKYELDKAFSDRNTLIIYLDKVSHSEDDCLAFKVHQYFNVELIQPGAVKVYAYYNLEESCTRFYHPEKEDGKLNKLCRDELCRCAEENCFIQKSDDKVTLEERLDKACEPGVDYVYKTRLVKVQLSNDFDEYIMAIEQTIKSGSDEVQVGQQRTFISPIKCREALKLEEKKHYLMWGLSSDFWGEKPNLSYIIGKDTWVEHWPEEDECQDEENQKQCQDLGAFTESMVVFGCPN

B1: Complement Factor I (CFI) (protein)
chain: KVTYTSQEDLVEKKCLAKKYTHLSCDKVFCQPWQRCIEGTCVCKLPYQCPKNGTAVCATNRRSFPTYCQQKSLECLHPGTKFLNNGTCTAEGKFSVSLKHGNTDSEGIVEVKLVDQDKTMFICKSSWSMREANVACLDLGFQQGADTQRRFKLSDLSINSTECLHVHCRGLETSLAECTFTKRRTMGYQDFADVVCYTQKADSPMDDFFQCVNGKYISQMKACDGINDCGDQSDELCCKACQGKGFHCKSGVCIPSQYQCNGEVDCITGEDEVGCAGFASVTQEETEILTADMDAERRRIKSLLPKLSCGVKNRMHIRRKRIVGGKRAQLGDLPWQVAIKDASGITCGGIYIGGCWILTAAHCLRASKTHRYQIWTTVVDWIHPDLKRIVIEYVDRIIFHENYNAGTYQNDIALIEMKKDGNKKDCELPRSIPACVPWSPYLFQPNDTCIVSGWGREKDNERVFSLQWGEVKLISNCSKFYGNRFYEKEMECAGTYDGSIDACKGDSGGPLVCMDANNVTYVWGVVSWGENCGKPEFPGVYTKVANYFDWISYHVGRPFISQYNV
- cleavage of C3b to iC3b quantified by ELISA (cofactor assay; CFI and C3b fixed, CFH or FHL1 titrated): a minimum functional CFI:CFH/FHL1 molar ratio is 1:2
